From patent US20170369592A1, “NOVEL ANTI-FIBROBLAST ACTIVATION PROTEIN (FAP) ANTIBODIES AND USES DERIVED THEREOF” (Mabimmune Diagnostics AG, priority 2015, published 2017)

Experiments:
[1] = tested on: multiple myeloma cells and tumor stroma in the syngeneic MOPC315.BM mouse model; assay: Immunofluorescence on murine multiple myeloma tissues; conditions: Cy5 labelled antibody, MOPC315.BM BALB/c mice
Protocol: BALB/c mice were injected with 2×10^6 of the murine multiple myeloma cell line […] intravenously. BALB/c mice were injected with a vehicle-only control. Bone tissue was harvested and fixed in 4% PFA, decalcified in 10% EDTA (pH 7.4), embedded in paraffin before being sectioned (4 μm) and rehydrated. Then, CD138 mAb (Clone 281-2, BD Pharmingen) and Cy5 labelled NI-206.82C2 were used to identify MOPC315.BM.Luc cell infiltration, and NI-206.82C2 binding to these cells and surrounding stromal cells in the tissue sections. Stained tissue sections were then imaged using a fluorescent microscope (FIG. 13).

[2] = tested on: human invasive ductal carcinoma and invasive lobular carcinoma sections; assay: Confocal immunofluorescence on human carcinoma cryosections; conditions: Cyanine 3 labelled antibody
Protocol: NI-206.82C2 was labelled with Cyanine 3 for fluorescent imaging (Cy3 conjugation kit: Innova Biosciences, 340-0030) and antibody labelling was validated using a spectophotometer. Cryosections from human invasive ductal carcinoma tissues (FIG. 9, A) and invasive lobular carcinoma (FIG. 9, B) were fixed for 5 minutes in ice cold acetone and allowed to dry for 10 minutes before washing in PBS. The sections were then incubated for 1 hr at room temperature in 5% BSA in PBS. The tissue sections were then incubated with Cyanine 3 prelabelled antibodies overnight at 4° C., and then washed three times in PBS before incubation with DAPI at 0.5 μg/mL. Sections were then washed three additional times in PBS and mounted in Lisbeth's mounting medium before imaging on a SP8 confocal microscope (Leica Microsystems).

[3] = tested on: murine CT-26 colorectal cancer tissue sections; assay: Immunofluorescence on murine colorectal cancer tissue sections; set-up: species or system mouse; conditions: Cy5 labelled antibody
Protocol: NI-206.82C2 was prelabelled with Cyanine 5 antibody labeling kit (Innova Biosciences, 342-0010), and sufficient antibody labelling was validated with a photospectrometer. Cryosections of mouse livers containing syngeneic CT-26 liver metastasis were allowed to dry for 30 min at room temperature the fixed for 10 min in 4% formalin in PBS. Slides were then washed 3 times for 5 minutes in PBS and blocked for 1 hr at room temperature with 5% bovine serum albumin in PBS. The slides were then incubated overnight at 4° C. with staining solution containing DAPI at 0.5 μg/mL, and Alexa 547 phalloidin (Invitrogen) according to the manufacturer's instructions, and either Cy5 labelled NI-206.82C2 or a Cy5 labelled isotype-matched control antibody 3A1 at a concentration of 10 µg/mL, in blocking solution with 0.5% Triton X100. Slides were then washed 3 times in PBS, mounted in Lisbeth's mounting medium, and imaged with an SP8 confocal microscope (Leica Microsystems).

rhFAP = target: T1, rhFAP (Homo sapiens, UniProt Q12884); assay: Mechanism of inhibition of rhuFAP-mediated PEP (Z-Gly-Pro-AMC) cleavage; assay type: biochemical; conditions: 0, 10, 100, 1000 nM antibody, 20-100 μM Z-Gly-Pro-AMC, Lineweaver-Burk plot
T1 construct: purchased Sino Biologicals 10464-H07H
T1 sequence (Q12884 26-760 limits assumed): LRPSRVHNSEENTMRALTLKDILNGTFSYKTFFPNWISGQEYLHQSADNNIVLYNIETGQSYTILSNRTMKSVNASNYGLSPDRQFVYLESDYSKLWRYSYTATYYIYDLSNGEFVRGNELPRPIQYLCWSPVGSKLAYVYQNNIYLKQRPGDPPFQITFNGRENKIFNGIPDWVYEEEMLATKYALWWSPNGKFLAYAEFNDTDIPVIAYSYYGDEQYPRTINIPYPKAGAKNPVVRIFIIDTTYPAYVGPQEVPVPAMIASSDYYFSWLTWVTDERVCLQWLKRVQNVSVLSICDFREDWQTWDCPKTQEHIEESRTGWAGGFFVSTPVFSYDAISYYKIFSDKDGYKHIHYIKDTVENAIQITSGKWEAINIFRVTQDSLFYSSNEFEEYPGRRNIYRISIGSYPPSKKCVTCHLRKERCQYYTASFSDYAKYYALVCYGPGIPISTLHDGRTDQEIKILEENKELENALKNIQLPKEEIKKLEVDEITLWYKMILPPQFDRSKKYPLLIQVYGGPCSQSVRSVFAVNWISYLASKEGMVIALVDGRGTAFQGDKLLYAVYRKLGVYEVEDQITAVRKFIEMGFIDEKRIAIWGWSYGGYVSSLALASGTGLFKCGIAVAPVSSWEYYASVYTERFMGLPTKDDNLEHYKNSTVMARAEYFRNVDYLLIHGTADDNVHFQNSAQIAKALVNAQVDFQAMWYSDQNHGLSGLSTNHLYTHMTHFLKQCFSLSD
Protocol: A black flat bottom standard 96-well ELISA plate was blocked for 1 hr at 37° C. using sterile blocking buffer: 5% bovine serum albumin (BSA) in phosphate buffered saline (PBS). 10 μL of recombinant human FAP solution: 0.4 nM recombinant human FAP (Sino Biologicals, 10464-H07H), in 225 mM Sodium phosphate buffer, pH 7.4) was added to each well. Then, 80 μL of NI-206.82C2 at the indicated concentrations in PBS were added to the wells incubated for 1 hr at 37° C. Then, 10 μL of fluorogenic substrate solution (Z-Gly-Pro-AMC in 40% methanol and 60% 25 […]) was added to each well. The fluorescence intensity was measured at 360 nm excitation and 460 nm emission every 3 min over a total reading time of 2 hr.

[4] = tested on: obstructive human coronary thrombi and aortic atherosclerotic plaque; assay: Confocal immunofluorescence on coronary thrombi and atherosclerotic plaque; conditions: Cyanine 3 labelled antibody
Protocol: NI-206.82C2 was labelled with Cyanine 3 for fluorescent imaging (Cy3 conjugation kit: Innova Biosciences, 340-0030) and antibody labelling was validated using a spectophotometer. Cryosections from myocardial infarction causing obstructive human coronary thrombi (FIG. 14, A) and human aortic atherosclerotic plaque (FIG. 14, B) were fixed for 5 minutes in ice cold acetone and allowed to dry for 10 minutes before washing in PBS. The sections were then incubated for 1 hr at room temperature in 5% BSA in PBS, and then incubated with Cyanine 3 labelled antibodies overnight at 4° C., before washing three times in PBS before incubation with DAPI at 0.5 μg/mL. Sections were then washed three additional times in PBS and mounted in Lisbeth's mounting medium before imaging on a SP8 confocal microscope (Leica Microsystems).

B1: NI-206.82C2: recombinant human memory B cell-derived monoclonal anti-FAP IgG1 antibody, variable regions in FIG. 1A, FAP inhibitory (antibody, V domains shown)
VH: QVQLQQSGPGLVKPSQTLSLTCAISGDSVSSNSVTWNWIRQSPSRGLEWLGRTYYRSKWYNDYAVSVKGRITINPDTSKNQFYLQLKSVTPEDAAVYYCARDSSILYGDYWGQGTLVTVSS
VL: QAVLTQPSSLSASPGASASLTCTLPSGINVGTYRIFWFQQKPGSPPQYLLSYKSDSDNHQGSGVPSRFSGSKDASANAGILLISGLQSEDEADYYCMIWHSSAWVFGGGTKLTVL
binding to multiple myeloma cells and tumor stroma [1]: binds | binding to human invasive ductal carcinoma and invasive lobular carcinoma sections [2]: specifically binds | staining of CT-26 syngeneic liver metastasis sections [3]: found around the perimeter | mechanism of inhibition of FAP-mediated PEP cleavage (rhFAP): non-competitive inhibitor | binding to obstructive human coronary thrombi and aortic atherosclerotic plaque [4]: binds
